Experimental data reported in PMC3372767 (Biochimica et Biophysica Acta, 2012).

Key:
[1] = target: full-length ectodomain of human CSF-1R (hCSF-1R D1-D5) (human, UniProt P07333 20-517); assay: ITC
[2] = target: N-terminal three Ig-like domains of human CSF-1R (hCSF-1R D1-D3) (human, UniProt P07333 20-298); assay: ITC
N-terminal three Ig-like domains of human CSF-1R (hCSF-1R D1-D3), sequence (P07333 20-298): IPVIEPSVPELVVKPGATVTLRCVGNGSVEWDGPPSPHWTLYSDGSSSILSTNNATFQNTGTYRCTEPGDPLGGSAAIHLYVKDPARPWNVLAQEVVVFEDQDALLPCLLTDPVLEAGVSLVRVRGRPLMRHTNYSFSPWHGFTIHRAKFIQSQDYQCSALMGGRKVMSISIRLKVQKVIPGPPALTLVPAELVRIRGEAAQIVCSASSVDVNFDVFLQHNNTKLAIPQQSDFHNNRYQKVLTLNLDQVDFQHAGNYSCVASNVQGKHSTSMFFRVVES

full-length ectodomain of human CSF-1R (hCSF-1R D1-D5), sequence (P07333 20-517): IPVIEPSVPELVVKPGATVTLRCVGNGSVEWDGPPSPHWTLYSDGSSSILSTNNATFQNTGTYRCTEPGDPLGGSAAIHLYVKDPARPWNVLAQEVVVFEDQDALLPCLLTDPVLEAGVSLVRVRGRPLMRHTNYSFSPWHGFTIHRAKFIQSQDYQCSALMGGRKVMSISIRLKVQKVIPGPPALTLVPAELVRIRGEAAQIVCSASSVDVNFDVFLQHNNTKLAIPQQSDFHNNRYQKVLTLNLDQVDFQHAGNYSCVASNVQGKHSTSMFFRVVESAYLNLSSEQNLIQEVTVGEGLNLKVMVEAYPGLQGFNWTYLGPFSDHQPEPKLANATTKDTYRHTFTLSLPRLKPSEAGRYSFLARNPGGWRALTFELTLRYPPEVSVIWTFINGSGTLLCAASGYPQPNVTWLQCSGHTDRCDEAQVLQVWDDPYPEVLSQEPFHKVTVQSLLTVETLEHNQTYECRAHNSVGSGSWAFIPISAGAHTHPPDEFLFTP

B1: human IL-34 (ligand, UniProt Q6ZMJ4 21-242, looked up)
chain: NEPLEMWPLTQNEECTVTGFLRDKLQYRSRLQYMKHYFPINYKISVPYEGVFRIANVTRLQRAQVSERELRYLWVLVSLSATESVQDVLLEGHPSWKYLQEVETLLLNVQQGLTDVEVSPKVESVLSLLNAPGPNLKLVRPKALLDNCFRVMELLYCSCCKQSSVLNWQDCEVPSPQSCSPEPSLQYAATQLYPPPPWSPSSPPHSTGSVRPVRAQGEGLLP
Q: Which results are given for B1?
A: fold higher affinity than to CSF-1R D1-D3 [1]: ~400 fold; stoichiometry N [1]: 1; stoichiometry N [2]: 1
